Measured values: article PMC4356359, “The structure of bradyzoite-specific enolase from Toxoplasma gondii reveals insights into its dual cytoplasmic and nuclear functions”

B1: TgMAG1 probe (TTTTCT motif) (dsDNA)
DNA 1: TTTTCTTCTCAAGA
DNA 2: TCTTGAGAAGAAAA
B2: probe C (random negative control) (dsDNA)
DNA 1: TTCTCCTGTGTCAT
DNA 2: ATGACACAGGAGAA
B3: probe B (c-Myc promoter TATA box) (dsDNA)
DNA 1: ATATAAAATCCGTA
DNA 2: TACGGATTTTATAT

Target: T1, TgENO1 (bradyzoite enolase 1) (Toxoplasma gondii, UniProt B9PH47 1-444)
T1 sequence: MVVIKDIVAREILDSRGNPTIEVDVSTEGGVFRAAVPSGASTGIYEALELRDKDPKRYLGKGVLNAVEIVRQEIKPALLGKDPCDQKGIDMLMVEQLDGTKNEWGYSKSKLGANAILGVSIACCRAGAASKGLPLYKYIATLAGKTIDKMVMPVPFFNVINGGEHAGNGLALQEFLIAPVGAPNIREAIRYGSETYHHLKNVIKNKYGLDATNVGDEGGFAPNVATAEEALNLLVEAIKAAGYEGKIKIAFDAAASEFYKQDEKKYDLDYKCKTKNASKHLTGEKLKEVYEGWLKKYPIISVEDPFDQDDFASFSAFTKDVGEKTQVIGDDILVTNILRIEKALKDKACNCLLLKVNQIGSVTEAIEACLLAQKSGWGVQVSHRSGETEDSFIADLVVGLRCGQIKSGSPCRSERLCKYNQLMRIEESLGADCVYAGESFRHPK
Test: EMSA; EMSA with Thermo Scientific band-shift kit per manufacturer; buffer, salt, pH and temperature not stated (protein stock 10 mM Tris-HCl pH 8.3, 500 mM NaCl, 5 mM beta-mercaptoethanol)
Details: protein: recombinant; tags: N-terminal His-TEV (pCCK-N'-HisTEV vector)

| Binder | binding result |
| --- | --- |
| B1 | binds |
| B2 | no binding |
| B3 | no binding |
